Patent publication US20190218302A1, “ANTI-CANCER COMBINATION TREATMENT” (PROBIOCON GMBH, priority 2016, published 2019)

Experiments:
[1] = tested on: RANK expressing PBMC of a patient suffering from AML (94% blasts); assay: Chemotherapy resistance model, PBMC of an AML patient, flow cytometry (7AAD and Annexin-V-PE); format: cell-based, human
Experimental: FIG. 1: RANKL mediates resistance of malignant cells to chemotherapeutic treatment. Blood of a patient suffering from acute myeloid leukemia (AML) containing 94% blasts (leukemic cells) was obtained at time of diagnosis prior to treatment and peripheral blood mononuclear cells (PBMC) were isolated by density gradient centrifugation. PBMC were cultured in the presence or absence of doxorubicin (dox, 1 μM) and/or soluble RANKL (sRANKL, 500 ng/ml) as indicated.
RANK expressing PBMC of a patient suffering from AML (French-American-British (FAB) classification: M4; 94% peripheral blood blasts) were subjected to a model of chemotherapyresistance (FIG. 1). To this end, patient blood was obtained at time of diagnosis prior to treatment and PBMC were isolated by density gradient centrifugation. […] Since AML cells of the FAB type M4 resemble monocyte-like cells, this experiment is in line with studies in healthy monocytes showing that sRANKL (Seshasayee et al. 2004, Jour Biol Chem, 279(29):30202-9) acts as a pro-survival factor, likely due to upregulation of anti-apoptotic BCL-2 proteins.

[2] = tested on: MCF10A breast cancer cells; assay: MCF10A breast cancer cells with sRANKL, Denosumab and paclitaxel, flow cytometry with 7AAD; format: cell-based, human; settings: 48 h, paclitaxel 10 nM added after 24 h
Experimental: FIG. 2: Blockade of RANKL by Denosumab overcomes resistance to chemotherapeutic treatment. MCF10A breast tumor cells were cultured for 48 h in the presence or absence of sRANKL (100 ng/ml) and/or Denosumab (20 μg/ml) as indicated. After the first 24 h of culture, paclitaxel (10 nM) was added where indicated. Then the percentage of living and dead cells was determined using flow cytometry with 7AAD.
To this end, it was evaluated if RANKL-induced chemoresistance could be overcome by application of a RANKL-inhibitor in the form of the approved RANKL antibody Denosumab. Therefore, MCF10A breast cancer cells were cultured for 48 h in the presence or absence of sRANKL (100 ng/ml, Immunotools) and Denosumab (20 μg/ml, Amgen) as indicated. After 24 h of culture, paclitaxel (10 nM, Taxomedac) representing a first line breast cancer therapeutic agent, was added where indicated.

[3] = tested on: MCF10A breast cancer cells; assay: Viability of tumor cells cultured with platelets and Denosumab, ATP content (CellTiter-Glo); format: cell-based, human; settings: platelets plus Denosumab, 96 h; paclitaxel for the last 24 h
Experimental: (§1) A2780 ovarian cancer cells (left) and MCF10A breast cancer cells (right) were employed as model to study the influence of RANKL and its neutralization on chemotherapy resistance. To this end, 30,000 tumor cells were cultured in the presence or absence of platelets and Denosumab for 96 h. The indicated concentrations of doxorubicin (left) or paclitaxel (right) were added for the last 24 h. Then cell viability was determined by analysis of ATP content of each sample (CellTiter-Glo assay, Promega). Values obtained with untreated tumor cells were set to 1.
(§2) To assess the role of pRANKL in the context of systemic treatment, the viability of ovarian and breast cancer cells was analyzed. Cells were incubated with human platelets in the presence or absence of Denosumab to neutralize pRANKL which mimics the situation in cancer patients. Presence of platelets enhanced the viability/cellular activity of tumor cells already without chemotherapeutic treatment, and the same was observed upon chemotherapeutic treatment.

[4] = tested on: A2780 ovarian cancer cells; assay: as above; format: cell-based, human; settings: platelets plus Denosumab, 96 h; doxorubicin for the last 24 h
Experimental: as §1, §2

[5] = tested on: melanoma metastasis; settings: Jones et al., Nature 2006, cited from earlier work
[6] = tested on: SKBR3 breast cancer cell line; settings: Schramek et al., Nature 2010; cited from earlier work

What does the source list for `COc1cccc2c1C(=O)c1c(O)c3c(c(O)c1C2=O)C[C@@](O)(C(=O)CO)C[C@@H]3O[C@H]1C[C@H](N)[C@H](O)[C@H](C)O1` [doxorubicin, reference compound]?
percentage of early apoptotic and dead cells compared to the control group ([1]; doxorubicin 1 μM, 48 h of treatment): greatly enhanced; amount of viable AML cells ([1]; ex vivo cancer cell assay, doxorubicin applied): reduced

Which results are given for “Denosumab: fully human IgG2 monoclonal antibody specific to RANKL (Amgen); heavy chain SEQ ID 1, light chain SEQ ID 2”?
effects of chemotherapeutic treatment upon RANKL neutralization (chemosensitivity) ([2]; Denosumab 20 μg/ml with sRANKL 100 ng/ml): restores and even increases the effects of chemotherapeutic treatment; protective effect of platelets on tumor cell viability [3]: substantially reduced; protective effect of platelets on tumor cell viability [4]: substantially reduced

B1: osteoprotegerin: used for in vivo neutralization of RANKL in a mouse model of melanoma metastasis (protein, UniProt O00300 22-401, looked up)
Tumor necrosis factor …: ETFPPKYLHYDEETSHQLLCDKCPPGTYLKQHCTAKWKTVCAPCPDHYYTDSWHTSDECLYCSPVCKELQYVKQECNRTHNRVCECKEGRYLEIEFCLKHRSCPPGFGVVQAGTPERNTVCKRCPDGFFSNETSSKAPCRKHTNCSVFGLLLTQKGNATHDNICSGNSESTQKCGIDVTLCEEAFFRFAVPTKFTPNWLSVLVDNLPGTKVNAESVERIKRQHSSQEQTFQLLKLWKHQNKDQDIVKKIIQDIDLCENSVQRHIGHANLTFEQLRSLMESLPGKKVGAEDIEKTIKACKPSDQILKLLSLWRIKNGDQDTLKGLMHALKHSKTYHFPKTVTQSLKKTIRFLHSFTMYKLYQKLFLEMIGNQVQSVKISCL
With B1 as the molecule, how does the protection from paralysis [5] read?
Its protection from paralysis is “complete protection from paralysis”.

And the “tumor burden in bones” value ([5]; in bones, but not in other organs)?
Its value is “marked reduction in tumor burden in bones”.

B2: sRANKL: recombinant human soluble RANKL, Immunotools, Germany (protein)
chain: EKAMVDGSWLDLAKRSKLEAQPFAHLTINATDIPSGSHKVSLSSWYHDRGWAKISNMTFSNGKLIVNQDGFYYLYANICFRHHETSGDLATEYLQLMVYVTKTSIKIPSSHTLMKGGSTKYWSGNSEFHFYSINVGGFFKLRSGEEISIEVSNPSLLDPDQDATYFGAFKVRDID
For B2, which “protection of malignant cells from the effects of chemotherapeutic treatment” value ([2]; sRANKL 100 ng/ml) is on record?
Its value is “protects the malignant cells from the effects of chemotherapeutic treatment”.

What about the “protection from apoptosis induced by doxorubicin” value [6] of the same molecule?
Its value is “protects the SKBR3 breast cancer cell line from apoptosis induced by doxorubicin”.

And the “effect of doxorubicin on the amount of viable AML cells in the presence of sRANKL” value ([1]; ex vivo cancer cell assay, doxorubicin plus sRANKL)?
Its value is “neutralized”.

And the “effect of chemotherapeutic treatment when sRANKL was added” value ([1]; sRANKL 500 ng/ml added to doxorubicin 1 μM, 48 h)?
Its value is “markedly reduced”.
